Results as given in patent publication CN116731161A (UNIV NANKAI, dated 2023).

Biological target: T1, FcγRI (UniProt P12314 16-288)
T1 construct: also called CD64
Experiment: SPR (Biacore T200), His-tagged target captured on anti-His chip, antibody as analyte

T1 sequence (P12314 16-288 limits assumed): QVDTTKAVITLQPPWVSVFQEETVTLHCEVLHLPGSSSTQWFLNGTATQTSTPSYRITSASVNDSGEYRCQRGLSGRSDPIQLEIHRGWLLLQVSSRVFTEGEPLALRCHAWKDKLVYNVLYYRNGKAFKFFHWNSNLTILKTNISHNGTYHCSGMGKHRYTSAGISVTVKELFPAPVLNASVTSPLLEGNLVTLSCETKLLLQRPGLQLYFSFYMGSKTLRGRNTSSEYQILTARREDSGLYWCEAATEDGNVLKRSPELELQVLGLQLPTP

B1: X构型Rituximab抗体 (antibody, human IgG1, kappa)
heavy: not shown
light: QIVLSQSPAILSASPGEKVTMTCRASSSVSYIHWFQQKPGSSPKPWIYATSNLASGVPVRFSGSGSGTSYSLTISRVEAEDAATYYCQQWTSNPPTFGGGTKLEIKRTVAAPSVFIFPPSDEQLKSGTASVVCLLNNFYPREAKVQWKVDNALQSGNSQESVTEQDSKDSTYSLSSTLTLSKADYEKHKVYACEVTHQGLSSPVTKSFNRGECGGGGSGGGGSGGGGSGGGGSGGGGSGGGGSVPPPPPCCHPRLSLHRPALEDLLLGSEANLTCTLTGLRDASGVTFTWTPSSGKSAVQGPPERDLCGCYSVSSVLPGCAEPWNHGKTFTCTAAYPESKTPLTATLSKSGNTFRPEVHLLPPPSEELALNELVTLTCLARGFSPKDVLVRWLQGSQELPREKYLTWASRQEPSQGTTTFAVTSILRVAAEDWKKGDTFSCMVGHEALPLAFTQKTIDRLAGK
notes: also called X构型抗体; Rituximab X-body
B1: binds.
